{"source": "patent US20230391828", "test_system": "T1, G3-6, Ac-cyclo(4,11)-EWWZIKEIQRXRRA-NH2", "T1 sequence": "EWWXIKEIQRXRRA"}
{"substance": "recombinant human APC/C (Strep-tagged APC4), expressed in SF9 cells", "values": [{"measurement": "in vitro APC/C ubiquitination assay with different E2 enzymes (UBE2C, UBE2D, UBE2S), Ub-cyclin B1 substrate, 100 µM, 40 min", "value": "The lead molecule G3-6 (SEQ. ID. NO. 33) inhibits APC/C in vitro independently on employed E2 enzymes."}]}
